One assay deals with T1, DcR3 (UniProt O95407 30-300, limits assumed).
T1 construct: the construct is not described; also called decoy receptor DcR3; TNFRSF6B
T1 sequence (looked up): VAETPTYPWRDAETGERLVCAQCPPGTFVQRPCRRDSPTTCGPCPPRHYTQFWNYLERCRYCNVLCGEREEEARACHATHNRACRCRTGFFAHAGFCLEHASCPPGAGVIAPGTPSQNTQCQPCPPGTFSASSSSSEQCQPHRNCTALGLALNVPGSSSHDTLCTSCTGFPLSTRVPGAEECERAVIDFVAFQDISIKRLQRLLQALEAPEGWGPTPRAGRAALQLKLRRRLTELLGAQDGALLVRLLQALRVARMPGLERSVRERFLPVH
Kind of assay: ELISA, DcR3. (In an ELISA, binding on a coated surface is turned into a signal by an enzyme label.)

The target in assay [1] is T2, Recombinant DR3-Fc (R&D Systems, cat. #943-D3) (UniProt Q93038 25-199, limits assumed).
T2 construct: dimeric MW~92 kDa; also called DR3 receptor; Fc-DR3; not shown: Fc part of the bought fusion
T2 sequence (looked up): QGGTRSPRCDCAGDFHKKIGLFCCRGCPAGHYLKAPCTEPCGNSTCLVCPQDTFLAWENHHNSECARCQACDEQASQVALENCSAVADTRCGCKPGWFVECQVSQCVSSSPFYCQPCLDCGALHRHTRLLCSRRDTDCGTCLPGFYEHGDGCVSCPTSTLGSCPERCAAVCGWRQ
Kind of assay: ELISA, DR3-Fc immobilized. As for the experimental part:
All ELISA-based measurements were collected in triplicate, and error values report the standard error between measurements. Recombinant DR3-Fc (R&D Systems, cat. #943-D3), dimeric MW˜92 kDa, was non-specifically immobilized onto plates (Nunc maxisorp, cat. #436110) in 100 μL DR3-Fc, diluted to 10 μg/mL onto a 96-well White Maxisorp plate (Nunc, cat #436110) (O/N, 4° C.). Plates were block for 1 hour at room temperature with 250 μl/well of casein buffer and blocking buffer was removed. 50 μL of TL1A variants were diluted in StartingBlock PBS (Thermo Fisher Scientific), at 25 μg/mL, diluting 3× over each well, according to the plate map description for 20160623) per well on a 96-well White Maxisorp plate (Nunc, cat #: 436110) (overnight at 4° C.).
Plates were washed three times with TBST. 100 μl/well polyclonal rabbit anti-human TL1A-biotin antibody (diluted 1:1000 in Starting Block PBS) was added and plates were incubated for 1 hour at room temperature with shaking at 150 rpm. TL1A-biotin antibody was removed and 100 μl/well streptavidin-HRP conjugate (diluted 1:10,000 in Starting Block PBS) was added to plates. Plates were incubated for 1 hour at room temperature with shaking at 150 rpm. Plates were washed three times with TBST. 100 μl/well POD Chemiluminescence substrate (Roche, cat #: 11582950001) was added immediately prior to reading plate luminescence using a Molecular Devices M5 plate reader with a delay setting of 100 ms.
Variants of TL1A were generated and tested for binding to DR3 and DcR3 by ELISA as described.

B1: TL1W44 (His-TEV-TL1A P189K) (ligand)
chain: HHHHHHENLYFQGLKGQEFAPSHQQVYAPLRADGDKPRAHLTVVRQTPTQHFKNQFPALHWEHELGLAFTKNRMNYTNKFLLIPESGDYFIYSQVTFRGMTSECSEIRQAGRPNKPDSITVVITKVTDSYKEPTQLLMGTKSVCEVGSNWFQPIYLGAMFSLQEGDKLMVNVSDISLVDYTKEDKTFFGAFLL
notes: also called TL1W44 (P189K)
Regarding B1, in the assay with DcR3, the EC50 (commonly the concentration at which the effect is half-maximal) worked out at 59.1 nM and the “Rel EC50” value was 12.8 ratio (head: nM). In addition, in assay [1], the EC50 turned out to be 168 nM and the “Rel EC50” value is 6.4 ratio (head: nM).

B2: TL1W85 (His-TEV-TL1A G124S) (ligand)
chain: HHHHHHENLYFQGLKGQEFAPSHQQVYAPLRADGDKPRAHLTVVRQTPTQHFKNQFPALHWEHELSLAFTKNRMNYTNKFLLIPESGDYFIYSQVTFRGMTSECSEIRQAGRPNKPDSITVVITKVTDSYPEPTQLLMGTKSVCEVGSNWFQPIYLGAMFSLQEGDKLMVNVSDISLVDYTKEDKTFFGAFLL
notes: also called TL1W85 (G124S)
As to B2, in the assay with DcR3, a half-maximal response (EC50) required 57.1 nM and the “Rel EC50” value was 12.4 ratio (head: nM). In assay [1], the EC50 came out at 296 nM and the “Rel EC50” value is 11.3 ratio (head: nM).

B3: TL1W96 (His-TEV-TL1A R170E) (ligand)
chain: HHHHHHENLYFQGLKGQEFAPSHQQVYAPLRADGDKPRAHLTVVRQTPTQHFKNQFPALHWEHELGLAFTKNRMNYTNKFLLIPESGDYFIYSQVTFRGMTSECSEIRQAGEPNKPDSITVVITKVTDSYPEPTQLLMGTKSVCEVGSNWFQPIYLGAMFSLQEGDKLMVNVSDISLVDYTKEDKTFFGAFLL
notes: also called TL1W96 (R170E)
With B3, in the assay with DcR3, the EC50 was 16.4 nM and the “Rel EC50” value is 3.6 ratio (head: nM). Besides, in assay [1], the EC50 was found to be 87 nM and the “Rel EC50” value was 3.3 ratio (head: nM).

B4: TL1W90 (His-TEV-TL1A R156K) (ligand)
chain: HHHHHHENLYFQGLKGQEFAPSHQQVYAPLRADGDKPRAHLTVVRQTPTQHFKNQFPALHWEHELGLAFTKNRMNYTNKFLLIPESGDYFIYSQVTFKGMTSECSEIRQAGRPNKPDSITVVITKVTDSYPEPTQLLMGTKSVCEVGSNWFQPIYLGAMFSLQEGDKLMVNVSDISLVDYTKEDKTFFGAFLL
notes: also called TL1W90 (R156K)
Take B4: in the assay with DcR3, the EC50 was 11 nM and the “Rel EC50” value was 2.4 ratio (head: nM). Also, in assay [1], the EC50 came to 188 nM and the “Rel EC50” value was 7.2 ratio (head: nM).

B5: TL1W81 (His-TEV-TL1A K111S) (ligand)
chain: HHHHHHENLYFQGLKGQEFAPSHQQVYAPLRADGDKPRAHLTVVRQTPTQHFSNQFPALHWEHELGLAFTKNRMNYTNKFLLIPESGDYFIYSQVTFRGMTSECSEIRQAGRPNKPDSITVVITKVTDSYPEPTQLLMGTKSVCEVGSNWFQPIYLGAMFSLQEGDKLMVNVSDISLVDYTKEDKTFFGAFLL
notes: also called TL1W81 (K111S)
As for B5, in the assay with DcR3, the concentration for a half-maximal effect (EC50) was found to be 50.9 nM and the “Rel EC50” value is 11.1 ratio (head: nM). In addition, in assay [1], the EC50 was determined as 34.4 nM and the “Rel EC50” value is 1.3 ratio (head: nM).

B6: TL1W93 (His-TEV-TL1A M158K) (ligand)
chain: HHHHHHENLYFQGLKGQEFAPSHQQVYAPLRADGDKPRAHLTVVRQTPTQHFKNQFPALHWEHELGLAFTKNRMNYTNKFLLIPESGDYFIYSQVTFRGKTSECSEIRQAGRPNKPDSITVVITKVTDSYPEPTQLLMGTKSVCEVGSNWFQPIYLGAMFSLQEGDKLMVNVSDISLVDYTKEDKTFFGAFLL
notes: also called TL1W93 (M158K)
With B6, the EC50 amounted to 55.9 nM with DcR3 and 22.5 nM in assay [1]. Also, the “Rel EC50” value with DcR3 was 12.1 ratio (head: nM); in assay [1], 0.9 ratio (head: nM).

B7: TL1W84 (His-TEV-TL1A E120H) (ligand)
chain: HHHHHHENLYFQGLKGQEFAPSHQQVYAPLRADGDKPRAHLTVVRQTPTQHFKNQFPALHWHHELGLAFTKNRMNYTNKFLLIPESGDYFIYSQVTFRGMTSECSEIRQAGRPNKPDSITVVITKVTDSYPEPTQLLMGTKSVCEVGSNWFQPIYLGAMFSLQEGDKLMVNVSDISLVDYTKEDKTFFGAFLL
notes: also called TL1W84 (E120H)
On to B7, for which the EC50 with DcR3 is 55.7 nM; in assay [1], 182 nM. Also, the “Rel EC50” value in the assay with DcR3 is 12.1 ratio (head: nM); in assay [1], 7 ratio (head: nM).

B8: TL1W97 (His-TEV-TL1A K173S) (ligand)
chain: HHHHHHENLYFQGLKGQEFAPSHQQVYAPLRADGDKPRAHLTVVRQTPTQHFKNQFPALHWEHELGLAFTKNRMNYTNKFLLIPESGDYFIYSQVTFRGMTSECSEIRQAGRPNSPDSITVVITKVTDSYPEPTQLLMGTKSVCEVGSNWFQPIYLGAMFSLQEGDKLMVNVSDISLVDYTKEDKTFFGAFLL
notes: also called TL1W97 (K173S)
As to B8, the EC50 in the assay with DcR3 came to 6.7 nM; in assay [1], 131 nM. For the same molecule, the results for the “Rel EC50” value (with DcR3; in assay [1]) were 1.5 ratio (head: nM) and 5 ratio (head: nM), respectively.

B9: TL1W94 (His-TEV-TL1A M158E) (ligand)
chain: HHHHHHENLYFQGLKGQEFAPSHQQVYAPLRADGDKPRAHLTVVRQTPTQHFKNQFPALHWEHELGLAFTKNRMNYTNKFLLIPESGDYFIYSQVTFRGETSECSEIRQAGRPNKPDSITVVITKVTDSYPEPTQLLMGTKSVCEVGSNWFQPIYLGAMFSLQEGDKLMVNVSDISLVDYTKEDKTFFGAFLL
notes: also called TL1W94 (M158E)
Turning to B9, in the assay with DcR3, the EC50 worked out at 18.7 nM and the “Rel EC50” value was 4.1 ratio (head: nM). Moreover, in assay [1], the EC50 stood at 58.7 nM and the “Rel EC50” value was 2.2 ratio (head: nM).

B10: TL1W78 (His-TEV-TL1A R103H) (ligand)
chain: HHHHHHENLYFQGLKGQEFAPSHQQVYAPLRADGDKPRAHLTVVHQTPTQHFKNQFPALHWEHELGLAFTKNRMNYTNKFLLIPESGDYFIYSQVTFRGMTSECSEIRQAGRPNKPDSITVVITKVTDSYPEPTQLLMGTKSVCEVGSNWFQPIYLGAMFSLQEGDKLMVNVSDISLVDYTKEDKTFFGAFLL
notes: also called TL1W78 (R103H)
For the molecule B10, the EC50 is 8.1 nM with DcR3 and 77.2 nM in assay [1]. Besides, the “Rel EC50” value in the assay with DcR3 is 1.8 ratio (head: nM); in assay [1], 2.9 ratio (head: nM).

B11: TL1W82 (His-TEV-TL1A K111E) (ligand)
chain: HHHHHHENLYFQGLKGQEFAPSHQQVYAPLRADGDKPRAHLTVVRQTPTQHFENQFPALHWEHELGLAFTKNRMNYTNKFLLIPESGDYFIYSQVTFRGMTSECSEIRQAGRPNKPDSITVVITKVTDSYPEPTQLLMGTKSVCEVGSNWFQPIYLGAMFSLQEGDKLMVNVSDISLVDYTKEDKTFFGAFLL
notes: also called TL1W82 (K111E)
B11: in the assay with DcR3, it took 10.6 nM to reach a half-maximal effect (EC50) and the “Rel EC50” value was 2.3 ratio (head: nM). For the same molecule, in assay [1], the EC50 was 25.8 nM and the “Rel EC50” value was 1 ratio (head: nM).

B12: TL1W47 (His-TEV-TL1A E241A) (ligand)
chain: HHHHHHENLYFQGLKGQEFAPSHQQVYAPLRADGDKPRAHLTVVRQTPTQHFKNQFPALHWEHELGLAFTKNRMNYTNKFLLIPESGDYFIYSQVTFRGMTSECSEIRQAGRPNKPDSITVVITKVTDSYPEPTQLLMGTKSVCEVGSNWFQPIYLGAMFSLQEGDKLMVNVSDISLVDYTKADKTFFGAFLL
notes: also called TL1W47 (E241A)
On to B12, for which, in the assay with DcR3, the EC50 was 1310 nM and the “Rel EC50” value is 285 ratio (head: nM). Further, in assay [1], the EC50 is 260 nM and the “Rel EC50” value is 9.9 ratio (head: nM).

B13: TL1W79 (His-TEV-TL1A R103E) (ligand)
chain: HHHHHHENLYFQGLKGQEFAPSHQQVYAPLRADGDKPRAHLTVVEQTPTQHFKNQFPALHWEHELGLAFTKNRMNYTNKFLLIPESGDYFIYSQVTFRGMTSECSEIRQAGRPNKPDSITVVITKVTDSYPEPTQLLMGTKSVCEVGSNWFQPIYLGAMFSLQEGDKLMVNVSDISLVDYTKEDKTFFGAFLL
notes: also called TL1W79 (R103E)
Take B13: the results for the EC50 (in the assay with DcR3; in assay [1]) were 7.1 nM and 204 nM, respectively. Further, the “Rel EC50” value is 1.5 ratio (head: nM) with DcR3 and 7.8 ratio (head: nM) in assay [1].

B14: TL1W98 (His-TEV-TL1A K173R) (ligand)
chain: HHHHHHENLYFQGLKGQEFAPSHQQVYAPLRADGDKPRAHLTVVRQTPTQHFKNQFPALHWEHELGLAFTKNRMNYTNKFLLIPESGDYFIYSQVTFRGMTSECSEIRQAGRPNRPDSITVVITKVTDSYPEPTQLLMGTKSVCEVGSNWFQPIYLGAMFSLQEGDKLMVNVSDISLVDYTKEDKTFFGAFLL
notes: also called TL1W98 (K173R)
With B14, the EC50 in the assay with DcR3 turned out to be 27.8 nM; in assay [1], 2050 nM. The results for the “Rel EC50” value (in the assay with DcR3; in assay [1]) were 6 ratio (head: nM) and 78.4 ratio (head: nM), respectively.

B15: TL1W99 (His-TEV-TL1A S176A) (ligand)
chain: HHHHHHENLYFQGLKGQEFAPSHQQVYAPLRADGDKPRAHLTVVRQTPTQHFKNQFPALHWEHELGLAFTKNRMNYTNKFLLIPESGDYFIYSQVTFRGMTSECSEIRQAGRPNKPDAITVVITKVTDSYPEPTQLLMGTKSVCEVGSNWFQPIYLGAMFSLQEGDKLMVNVSDISLVDYTKEDKTFFGAFLL
notes: also called TL1W99 (S176A)
With B15, in the assay with DcR3, the midpoint of the response, the EC50, lay at 11.5 nM and the “Rel EC50” value is 2.5 ratio (head: nM). For the same molecule, in assay [1], the EC50 came out at 34.8 nM and the “Rel EC50” value was 1.3 ratio (head: nM).

The values are drawn from patent US20220056104A1 (Janssen / Centocor, published 2022).
